Reference: publication PMC10471632, “Protein engineering and iterative multimodule optimization for vitamin B6 production in Escherichia coli” (Nature Communications, 2023)

B1: Eco_Epd (Escherichia coli K-12) (protein)
chain: TVRVAINGFGRIGRNVVRALYESGRRAEITVVAINELADAAGMAHLLKYDTSHGRFAWEVRQERDQLFVGDDAIRVLHERSLQSLPWRELGVDVVLDCTGVYGSREHGEAHIAAGAKKVLFSHPGSNDLDATVVYGVNQDQLRAEHRIVSNASCTTNCIIPVIKLLDDAYGIESGTVTTIHSAMHDQQVIDAYHPDLRRTRAASQSIIPVDTKLAAGITRFFPQFNDRFEAIAVRVPTINVTAIDLSVTVKKPVKANEVNLLLQKAAQGAFHGIVDYTELPLVSVDFNHDPHSAIVDGTQTRVSGAHLIKTLVWCDNEWGFANRMLDTTLAMATVAFR
B2: Gni_Epd (Brumicola nitratireducens FR1064) (protein)
chain: MLRIAINGFGRIGRNVLRALYESGRNDQIQVVAINEIASPEGVAHLLKYDTAHGRFKGTVDYTDQCLIVNGDKIPLFQKNNIEELAWSTVNVDIVLECTGVFSSRESAQQHIDNGARKVLFSQPCGQDMDATIVFGVNHKTLKPSDVIVSNGSCTTNCIVPIIQVLDEAFGVESGTITTIHSSMNDQQVIDAYHPDLRRTRAASQSIIPVDTRLHVGIERILPRFAGKFEAIAVRVPTINVTAMDLSVTLRDKVTVSDVNAVLKKSAHGELKRIIDYTEEPLVSVDFNHDPHSSIVDGTQTRVSHKQLVKTLVWCDNEWGFANRMLDTALHMHQLDS

Columns and labels:
Assay in all cases: NADH formation at A340
NADH formation at A340 [1] = substrate: O=C[C@H](O)[C@H](O)COP(=O)(O)O; format: biochemical, Escherichia coli; conditions: NAD+ 2 mM, 50 mM PPi buffer pH 8.6, 1 mM DTT, 37 °C
Excerpt: (§1) NADH formation at A340 on Eco_Epd

NADH formation at A340 [2] = substrate: NC(=O)c1ccc[n+]([C@@H]2O[C@H](COP(=O)(O)OP(=O)(O)OC[C@H]3O[C@@H](n4cnc5c(N)ncnc54)[C@H](O)[C@@H]3O)[C@@H](O)[C@H]2O)c1; format: biochemical, Escherichia coli; conditions: E4P 8 mM, 50 mM PPi buffer pH 8.6, 1 mM DTT, 37 °C, varied: cofactor
Excerpt: as §1

NADH formation at A340 [3] = substrate: O=C[C@H](O)[C@H](O)COP(=O)(O)O; format: biochemical, Brumicola nitratireducens; conditions: NAD+ 2 mM, 50 mM PPi buffer pH 8.6, 1 mM DTT, 37 °C
Excerpt: (§2) NADH formation at A340 on […]

NADH formation at A340 [4] = substrate: NC(=O)c1ccc[n+]([C@@H]2O[C@H](COP(=O)(O)OP(=O)(O)OC[C@H]3O[C@@H](n4cnc5c(N)ncnc54)[C@H](O)[C@@H]3O)[C@@H](O)[C@H]2O)c1; format: biochemical, Brumicola nitratireducens; conditions: E4P 8 mM, 50 mM PPi buffer pH 8.6, 1 mM DTT, 37 °C, varied: cofactor
Excerpt: as §2

Protein	Km (NADH formation at A340 [1]) [mM]	kcat (NADH formation at A340 [1]) [s⁻¹]	kcat/Km (NADH formation at A340 [1]) [M⁻¹ s⁻¹]	Km (NADH formation at A340 [2]) [mM]	kcat (NADH formation at A340 [2]) [s⁻¹]	kcat/Km (NADH formation at A340 [2]) [M⁻¹ s⁻¹]	Km (NADH formation at A340 [3]) [mM]	kcat (NADH formation at A340 [3]) [s⁻¹]	kcat/Km (NADH formation at A340 [3]) [M⁻¹ s⁻¹]	Km (NADH formation at A340 [4]) [mM]	kcat (NADH formation at A340 [4]) [s⁻¹]	kcat/Km (NADH formation at A340 [4]) [M⁻¹ s⁻¹]
B1	0.969	0.15	155	0.717	3.23	4510	–	–	–	–	–	–
B2	–	–	–	–	–	–	0.737	0.323	438	0.051	0.313	6140
